One molecule from paper PMC12038395, “Mechanistic insights into the activity of SARS-CoV-2 RNA polymerase inhibitors using single-molecule FRET” can be followed below.

This series has as its target SARS-CoV-2 nsp12 (RdRp), wild type;SARS-CoV-2 nsp7;SARS-CoV-2 nsp8 (SARS-CoV-2;SARS-CoV-2;SARS-CoV-2, UniProt P0DTD1;P0DTD1;P0DTD1 4393-5324;3860-3942;3943-4140, ||). Description: EMSA (native gel); no NTP. Particulars: protein: recombinant;recombinant;recombinant; tags: C-terminal His10 (TEV-cleaved protein A);GST-3C construct (E. coli); 9.4 kDa on gel;GST-3C construct (E. coli); 22 kDa on gel; copies: 1;1;2; label: Cy3 at template 5' end; Cy5 internal at primer position 12.

B1: Extension Template P1 / Extension Primer P12 short (overhang RNA) (structured_RNA)
RNA 1: AAAAAAAAUUUUUUUUUUUUUUUAAUUCUUAAUCUCACAUAGC
RNA 2: GCUAUGUGAGAUUAAGAAUU
As to B1, the binding result is recorded as “binds”.
